Measurements reported in patent US20220402981A1 (Dana-Farber, published 2022).

Tests used:
full-length human DCAF15 = target: T1, full-length human DCAF15 (human, UniProt Q66K64 1-600); experiment: cryo-EM at ~4.4 Å with E7820
T1 construct: mature; As in the cryo-EM and cross-linking complexes; also called full-length DCAF15

DCAF15split = target: T2, DCAF15split (human, UniProt Q66K64 30-264; Q66K64 383-600); experiment: crystal structure with E7820
T2 construct: range 30-264;range 383-600; DCAF15 as two fragments in the crystal structures (PDB 6Q0R, 6Q0V, 6Q0W); also called Strep II Avi-DCAF15NTD (residues 30-264)-Strep II Avi-DCAF15CTD (residues 383-600); DCAF15-NTD; not shown: N-terminal Strep II Avi tag

binding result (full-length human DCAF15): binds | binding result (DCAF15split): binds
B1: His6-RBM39RRM2 (other)
chain: GSAGPMRLYVGSLHFNITEDMLRGIFEPFGRIESIQLMMDSETGRSKGYGFITFSDSECAKKALEQLNGFELAGRPMKVGHVTERTDA
notes: RBM39RRM2 as in the crystals, cryo-EM and cross-linking complexes; not shown: N-terminal His6 tag
